Laboratory results reported in article PMC7523096 (bioRxiv, 2020).

Tests used:
Test in all cases: BLI
[1] = target: SARS-CoV-2 N-terminal domain-NTD (residue 1-290) (SARS-CoV-2, Wuhan-Hu-1 (MN908947), UniProt P0DTC2)
[2] = target: SARS-CoV-2 receptor-binding domain-RBD (residue 320-527) (SARS-CoV-2, Wuhan-Hu-1 (MN908947), UniProt P0DTC2)
[3] = target: SARS-CoV-2 RBD-SD1 (residue 320-591) (SARS-CoV-2, Wuhan-Hu-1 (MN908947), UniProt P0DTC2)
[4] = target: SARS-CoV-2 RBD-SD1-2 (residue 320-681) (SARS-CoV-2, Wuhan-Hu-1 (MN908947), UniProt P0DTC2)

Measured: binding result

B1: CC9.3 mAb (IgG) (antibody, V domains shown)
VH: QVQLQESGPGLVKPSETLSLTCTVSGGSIRSDFWSWIRQFPGKGLEWIGYIYYSGSTNYNPSLESRVTISVDTSKNEFSLKLNYVTAADTAIYYCARETRWNWLDSWGQGTLVTVSS
VL: DIVMTQSPDSLAVSLGERASINCKSSQTISYISNNKNYLAWYQQKPGQPPRLLIYWASTRESGVPDRFSGGGFGTDFTLTISSLQAEDVAVYYCQQYFNTPWTFGQGTKVEIK
no binding: [1] | [2] | [3] | [4]

B2: CC40.8 mAb (IgG) (antibody, V domains shown)
VH: EVQLLESGGGLVQPGGSLRLSCAASGFTFSSYVMTWARQAPGKGLEWVSAISGTGYTYYADSVKGRFTVSRDNSKNTLFLQMSSLRAEDTAVYYCAITMAPVVWGQGTTVTVSS
VL: SYELTQPPSVSVSPGQTARITCSGDALPKRYAYWYQQKSGQAPILVIYEDKKRPSGIPERLSGSKSGTVATLTISGAQVEDEADYYCYSTDSSGNHAVFGGGTQLTVL
no binding: [1] | [2] | [3] | [4]

B3: CC9.1 mAb (antibody, V domains shown)
VH: EVQLVESGGGLVQPGRSLRLSCVAPGFTLGGYGMHWVRQAPGKGLEWVGLISYDGSVQKYGSSVKGRFTISKDNSKNTLYLEMNSLRADDTAVYFCVKGASLGDNWGQGTLVTVSS
VL: EIVMTQSPLSLPVTLGQPASISCRSSQSLVYSDGDTYMSWFHQRPGQSPRRLIYKVSNRDSGVPDRFSGSGSGTDFTLKISRVEAEDVGVYYCMQGTHWPYTFGPGTKVEIK
no binding: [1] | [2] | [3] | [4]

B4: CC9.2 mAb (IgG) (antibody, V domains shown)
VH: EVQLVESGGGLVQPGRSLRLSCVAPGFTLGGYGMHWVRQAPGKGLEWVGLISYDGSVQKYGSSVKGRFTISKDNSKNTLYLEMNSLRADDTAVYFCVKGASLGDNWGQGTLVTVSS
VL: EIVMTQSPLSLPVTLGQPASISCRSSQSLVYSDGDTYMSWFHQRPGQSPRRLIYKVSNRDFGVPDRFSGSGSGTDFTLKISRVEAEDVGVYYCMQGTHWPYTFGPGTKVEIK
no binding: [1] | [2] | [3] | [4]

B5: second SARS-CoV-2/HCoV-HKU1 cross-reactive mAb from the CC40 donor (other than CC40.8; name not printed in the text) (antibody, V domains shown)
VH: EVQLVESGGGVVQPGRSLRLSCVASGFTFSNYGMHWVRQAPGKGLEWVAVMSYDGSVTYYGDSVRGRFTISRDNSKNTLYLQMSSLRTDDTGVYYCAKGQPLDDIWGLGTLVTVSS
VL: EIVMTQSPLSLPVSLGQSASISCRSSQSLVHTDGITYLSWFQQRPGQSPRRLLYKVSNRDSGVPDRFSGSGSGTDFTLKISRVEAEDVGVYYCLQGTYWPWTFGQGTKVEIK
no binding: [1] | [2] | [3] | [4]
